From patent US20220380471A1 (US Dept. of Health and Human Services, published 2022)

Key:
IgG control = assay: phage ELISA
How it was run: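 For 3 rounds, recombinant B7H3-Fc protein served as the panning target for camel VHH phage drawn from eight individual camels' libraries. Each entry gives the ELISA signal for binding of selected phage to an immobilised antigen, either human or other-species B7H3 or a control protein, measured by phage ELISA.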

monkey B7H3-His [1] = target: T1, monkey B7H3-His (monkey); assay: ELISA, purified VHH
T1 chain: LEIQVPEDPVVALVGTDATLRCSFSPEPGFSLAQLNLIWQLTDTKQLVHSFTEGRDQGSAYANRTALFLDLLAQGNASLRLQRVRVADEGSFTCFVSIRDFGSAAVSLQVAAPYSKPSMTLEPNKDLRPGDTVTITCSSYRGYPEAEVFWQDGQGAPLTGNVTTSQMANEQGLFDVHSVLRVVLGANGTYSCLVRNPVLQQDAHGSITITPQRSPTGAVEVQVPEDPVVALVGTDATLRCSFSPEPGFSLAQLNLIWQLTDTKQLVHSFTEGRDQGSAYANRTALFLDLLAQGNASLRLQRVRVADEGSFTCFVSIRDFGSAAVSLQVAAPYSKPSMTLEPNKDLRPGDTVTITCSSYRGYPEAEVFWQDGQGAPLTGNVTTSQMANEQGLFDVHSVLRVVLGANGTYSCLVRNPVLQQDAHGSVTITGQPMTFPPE
How it was run: (§1)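 Camel VHH nanobodies were isolated by phage panning on recombinant B7H3-Fc. After purification, their binding to immobilised B7H3 fusion proteins and non-B7H3 recombinant proteins was read out by ELISA and recorded as signal.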

[2] = target: T2, recombinant human B7H3-Fc protein (human, UniProt Q5ZPR3 29-466, limits assumed); assay: ELISA, purified VHH
T2 construct: 154 kDa non-reduced, 77 kDa reduced; also called hB7H3-Fc; not shown: Fc part
T2 sequence (looked up): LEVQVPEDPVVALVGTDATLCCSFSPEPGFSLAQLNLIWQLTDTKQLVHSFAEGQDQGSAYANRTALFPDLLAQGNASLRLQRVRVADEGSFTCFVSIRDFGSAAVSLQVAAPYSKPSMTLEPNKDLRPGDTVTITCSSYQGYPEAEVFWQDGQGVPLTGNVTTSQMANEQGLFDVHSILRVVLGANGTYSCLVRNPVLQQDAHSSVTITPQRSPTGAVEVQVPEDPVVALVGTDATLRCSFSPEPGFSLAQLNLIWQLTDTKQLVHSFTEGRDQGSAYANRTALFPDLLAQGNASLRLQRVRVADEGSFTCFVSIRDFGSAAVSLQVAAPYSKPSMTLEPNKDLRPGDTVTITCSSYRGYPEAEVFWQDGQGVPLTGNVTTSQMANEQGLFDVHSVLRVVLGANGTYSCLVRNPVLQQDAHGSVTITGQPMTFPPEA
How it was run: as §1

hB7H3-His = target: T3, hB7H3-His (human, UniProt Q5ZPR3 29-461, limits assumed); assay: ELISA, purified VHH
T3 construct: not shown: His tag
T3 sequence (looked up): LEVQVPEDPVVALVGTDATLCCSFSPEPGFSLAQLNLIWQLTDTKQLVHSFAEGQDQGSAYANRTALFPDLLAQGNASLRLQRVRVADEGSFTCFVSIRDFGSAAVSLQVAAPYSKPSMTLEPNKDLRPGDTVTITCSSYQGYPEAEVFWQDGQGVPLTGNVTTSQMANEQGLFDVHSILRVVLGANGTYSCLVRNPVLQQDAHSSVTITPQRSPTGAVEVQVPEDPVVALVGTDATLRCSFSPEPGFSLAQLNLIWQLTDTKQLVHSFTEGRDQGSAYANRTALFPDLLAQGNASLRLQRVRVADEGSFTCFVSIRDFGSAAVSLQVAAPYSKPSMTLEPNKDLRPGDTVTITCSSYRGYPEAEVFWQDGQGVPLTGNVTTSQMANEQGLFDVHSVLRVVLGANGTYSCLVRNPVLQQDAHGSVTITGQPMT
How it was run: as §1

rat B7H3-His = target: T4, rat B7H3-His (rat, UniProt Q7TPB4 29-244, limits assumed); assay: ELISA, purified VHH
T4 construct: not shown: His tag
T4 sequence (looked up): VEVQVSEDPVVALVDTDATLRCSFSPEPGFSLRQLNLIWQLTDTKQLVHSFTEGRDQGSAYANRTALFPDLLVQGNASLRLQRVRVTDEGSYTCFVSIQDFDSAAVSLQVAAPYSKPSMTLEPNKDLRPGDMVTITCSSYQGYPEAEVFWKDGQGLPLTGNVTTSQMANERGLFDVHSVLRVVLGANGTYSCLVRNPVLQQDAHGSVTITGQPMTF
How it was run: as §1

Non-relevant antigen = assay: ELISA, purified VHH
How it was run: as §1

human B7H3 = target: T5, human B7H3 (human, UniProt Q5ZPR3 29-466, limits assumed); assay: ELISA; row Human; well 1 of 3
T5 construct: also called human B7H3 protein
T5 sequence (looked up): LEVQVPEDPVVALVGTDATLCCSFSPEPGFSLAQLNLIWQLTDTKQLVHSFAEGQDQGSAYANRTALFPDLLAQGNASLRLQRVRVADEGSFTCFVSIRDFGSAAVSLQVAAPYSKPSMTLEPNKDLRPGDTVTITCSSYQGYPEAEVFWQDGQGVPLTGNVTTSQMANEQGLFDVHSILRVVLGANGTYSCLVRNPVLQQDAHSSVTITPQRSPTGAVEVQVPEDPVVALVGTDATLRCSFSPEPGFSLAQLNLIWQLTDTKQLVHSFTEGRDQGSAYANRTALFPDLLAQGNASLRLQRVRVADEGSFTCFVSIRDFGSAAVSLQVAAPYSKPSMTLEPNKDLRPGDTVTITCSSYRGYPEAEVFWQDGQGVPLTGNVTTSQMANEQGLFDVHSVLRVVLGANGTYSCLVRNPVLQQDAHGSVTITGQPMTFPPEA
How it was run: as §1

HN3-Fc = assay: ELISA; row HN3-Fc; well 3 of 3
How it was run: as §1

monkey B7H3-His [3] = target: T1, monkey B7H3-His; assay: ELISA; row Monkey; well 1 of 3
How it was run: as §1

[4] = target: T2, recombinant human B7H3-Fc protein; assay: ELISA; row B7H3-Fc; well 1 of 3
How it was run: as §1

PD-L1 = assay: ELISA; row PDL1-Fc; well 2 of 3
How it was run: as §1

[5] = target: T6, B7H3 (CD276) on MC38-CD276+ cells; assay: flow cytometry on MC38-CD276+ cells, VHH at 10 ug/ml
T6 construct: whole, on cells; MC38-CD276KO cells served as the negative control; also called MC38-B7H3+
T6 sequence (Q5ZPR3 1-534, species assumed, looked up): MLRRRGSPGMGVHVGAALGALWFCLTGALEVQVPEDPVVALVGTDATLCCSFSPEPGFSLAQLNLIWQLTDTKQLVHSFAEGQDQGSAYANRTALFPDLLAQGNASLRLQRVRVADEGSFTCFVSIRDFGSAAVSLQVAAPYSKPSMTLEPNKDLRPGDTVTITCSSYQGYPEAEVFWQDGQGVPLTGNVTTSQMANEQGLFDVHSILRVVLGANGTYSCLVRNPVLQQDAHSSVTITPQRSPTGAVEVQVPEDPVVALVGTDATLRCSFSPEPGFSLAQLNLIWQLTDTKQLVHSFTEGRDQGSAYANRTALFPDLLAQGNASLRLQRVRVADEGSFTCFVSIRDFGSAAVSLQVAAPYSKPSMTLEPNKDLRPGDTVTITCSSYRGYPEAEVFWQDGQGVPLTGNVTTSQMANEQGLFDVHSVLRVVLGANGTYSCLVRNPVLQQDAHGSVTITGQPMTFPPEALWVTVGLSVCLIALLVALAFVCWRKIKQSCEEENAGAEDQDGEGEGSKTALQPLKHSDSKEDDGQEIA

Chain of PD-L1 (Q9NZQ7 whole entry): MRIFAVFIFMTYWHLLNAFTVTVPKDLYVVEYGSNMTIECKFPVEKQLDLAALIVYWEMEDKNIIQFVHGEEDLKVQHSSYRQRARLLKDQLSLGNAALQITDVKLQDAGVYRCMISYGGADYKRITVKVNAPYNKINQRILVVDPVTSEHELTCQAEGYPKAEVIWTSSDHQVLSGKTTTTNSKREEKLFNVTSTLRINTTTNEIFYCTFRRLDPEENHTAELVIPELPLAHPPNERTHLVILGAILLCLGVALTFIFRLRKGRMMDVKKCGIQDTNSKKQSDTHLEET

B1: RWG8 (VHH)
VHH: DVQLVESGGGLVQPGGSLRLSCAASGFTFSRYWMGWFRQAPGKGVEWVSTINSGGGSTYYADSVKGRFTISRDNAKNTLYLQLNNLKTEDTAMYYCAKEQWRTGSRGQGTQVTVSS
notes: Camel VHH; tag not described; also called camel antibody RWG8
**Q.** Which ELISA signal (IgG control) does the source give for B1 here?
**A.** 0.101

**Q.** What about the ELISA signal (monkey B7H3-His [1]) of the same binder?
**A.** 0.117

**Q.** And the ELISA signal [2]?
**A.** 0.641

**Q.** And the ELISA signal (hB7H3-His)?
**A.** 1.04

**Q.** What about the ELISA signal (rat B7H3-His) of the same binder?
**A.** 0.0696

**Q.** What about the ELISA signal (Non-relevant antigen) of the same binder?
**A.** 0.0562

**Q.** What about the “ELISA reading (name not given)” value (human B7H3) of the same binder?
**A.** 0.136

**Q.** What about the “ELISA reading (name not given)” value (HN3-Fc) of the same binder?
**A.** 0.0535

**Q.** And the “ELISA reading (name not given)” value (monkey B7H3-His [3])?
**A.** 0.197

**Q.** And the “ELISA reading (name not given)” value [4]?
**A.** 1.97

**Q.** What about the “ELISA reading (name not given)” value (PD-L1) of the same binder?
**A.** 0.0633

**Q.** What about the Positive rates [5] of the same binder?
**A.** 4.68%

B2: RWB12 (VHH)
VHH: QVQLVESGGGSVQVGGSLRLSCAASGFTYNSYSVGWFRQAPGKEREGVAAINSGGSSTYYAASVKGRFTISRDNAKNTVYLQMNSLKPEDTAMYYCAARSPSPLTFQTRTLREDSYNYWGQGTQVTVSS
notes: Camel VHH; tag not described; also called camel antibody RWB12
**Q.** For B2, which ELISA signal (IgG control) is on record?
**A.** 0.164

**Q.** What about the ELISA signal (monkey B7H3-His [1]) of the same binder?
**A.** 0.164

**Q.** And the ELISA signal [2]?
**A.** 0.568

**Q.** And the ELISA signal (hB7H3-His)?
**A.** 0.686

**Q.** And the ELISA signal (rat B7H3-His)?
**A.** 0.0574

**Q.** What about the ELISA signal (Non-relevant antigen) of the same binder?
**A.** 0.0495

**Q.** What about the “ELISA reading (name not given)” value (human B7H3) of the same binder?
**A.** 0.181

**Q.** What about the “ELISA reading (name not given)” value (HN3-Fc) of the same binder?
**A.** 0.048

**Q.** What about the “ELISA reading (name not given)” value (monkey B7H3-His [3]) of the same binder?
**A.** 0.188

**Q.** What about the “ELISA reading (name not given)” value [4] of the same binder?
**A.** 0.878

**Q.** And the “ELISA reading (name not given)” value (PD-L1)?
**A.** 0.0685

**Q.** And the Positive rates [5]?
**A.** 4.16%

B3: RWC4 (VHH)
VHH: EVQLVESGGGSVQAGGSLRLSCVASEDSTSAMCMGWFRQAPGKEREGVACINPTGEVTWYGDSVKGRFTISRDTVKKIVYLQMNSLKPEDTAMYYCAARVTYGGDWSTDTDYEYWGQGTQVTVSS
notes: Camel VHH; tag not described; also called camel antibody RWC4
**Q.** B3 was tested. Which ELISA signal (IgG control) did it give?
**A.** 0.0777

**Q.** What about the ELISA signal (monkey B7H3-His [1]) of the same binder?
**A.** 0.288

**Q.** What about the ELISA signal [2] of the same binder?
**A.** 2.02

**Q.** And the ELISA signal (hB7H3-His)?
**A.** 2.44

**Q.** What about the ELISA signal (Non-relevant antigen) of the same binder?
**A.** 0.0719

**Q.** And the “ELISA reading (name not given)” value (human B7H3)?
**A.** 0.976

**Q.** And the “ELISA reading (name not given)” value (HN3-Fc)?
**A.** 0.0467

**Q.** And the “ELISA reading (name not given)” value (monkey B7H3-His [3])?
**A.** 1

**Q.** And the “ELISA reading (name not given)” value [4]?
**A.** 2.01

**Q.** And the “ELISA reading (name not given)” value (PD-L1)?
**A.** 0.0627

**Q.** What about the Positive rates [5] of the same binder?
**A.** 98.3%

B4: RWG4 (VHH)
VHH: QVQLVQSGGGLVQPGGSLRLSCAASGFTFSVYWFYWVRQAPRQGLEWVSTIASNGSTYYSDSVKGRFTISRDNAKNTVYLQMNSLKPEDTAVYYCVSDPDYYSDYERAYKFWAQGTQVTVSS
notes: Camel VHH; tag not described; also called camel antibody RWG4
**Q.** Which results are given for B4?
**A.** ELISA signal (IgG control): 0.103; ELISA signal (monkey B7H3-His [1]): 1.81; ELISA signal [2]: 2.54; ELISA signal (hB7H3-His): 2.55; ELISA signal (rat B7H3-His): 1.5; ELISA signal (Non-relevant antigen): 0.0541; Positive rates [5]: 85.8%
